Measurements from IntAct's records for PubMed 24286120.

B1: Malignant fibrous histiocytoma-amplified sequence 1 (Homo sapiens), Q9Y4C4 (parent)
chain: MAGMDSGNLKTARLWRDAALRARKLRSNLRQLTLTAAGACPGAGADALESPASPQLVLPANLGDIEALNLGNNGLEEVPEGLGSALGSLRVLVLRRNRFARLPPAVAELGHHLTELDVSHNRLTALGAEVVSALRELRKLNLSHNQLPALPAQLGALAHLEELDVSFNRLAHLPDSLSCLSRLRTLDVDHNQLTAFPRQLLQLVALEELDVSSNRLRGLPEDISALRALKILWLSGAELGTLPAGFCELASLESLMLDNNGLQALPAQFSCLQRLKMLNLSSNLFEEFPAALLPLAGLEELYLSRNQLTSVPSLISGLGRLLTLWLDNNRIRYLPDSIVELTGLEELVLQGNQIAVLPDHFGQLSRVGLWKIKDNPLIQPPYEVCMKGIPYIAAYQKELAHSQPAVQPRLKLLLMGHKAAGKTLLRHCLTEERVEGCPGGGDKEKCYPPSPPPVSKGIEVTSWTADASRGLRFIVYDLAGDESYEVIQPFFLSPGALYVLVVNLATYEPRHFPTTVGSFLHRVGARVPHAVVCIVGTHADLCGERELEEKCLDIHRQIALQEKHDAEGLSRLAKVVDEALARDFELRSASPHAAYYGVSDKNLRRRKAHFQYLLNHRLQILSPVLPVSCRDPRHLRRLRDKLLSVAEHREIFPNLHRVLPRSWQVLEELHFQPPQAQRLWLSWWDSARLGLQAGLTEDRLQSALSYLHESGKLLYFEDSPALKEHVFHNLTRLIDILNVFFQRDPSLLLHKLLLGTSGEGKAEGESSPPMARSTPSQELLRATQLHQYVEGFLLHGLLPAHVIRLLLKPHVQAQQDLQLLLELLEKMGLCYCLNKPKGKPLNGSTAWYKFPCYVQNEVPHAEAWINGTNLAGQSFVAEQLQIEYSFPFTFPLGLFARYSVQINSHVVHRSDGKFQIFAYRGKVPVVVSYRPARGVLQPDTLSIASHASLPNIWTAWQAITPLVEELNVLLQEWPGLHYTVHILCSKCLKRGSPNPHAFPGELLSQPRPEGVAEIICPKNGSERVNVALVYPPTPTVISPCSKKNVGEKHRNQ

Variants of: B1
Settings: with ch60_human HSPD1, P10809
Sequence of ch60_human HSPD1, P10809 (P10809 whole entry): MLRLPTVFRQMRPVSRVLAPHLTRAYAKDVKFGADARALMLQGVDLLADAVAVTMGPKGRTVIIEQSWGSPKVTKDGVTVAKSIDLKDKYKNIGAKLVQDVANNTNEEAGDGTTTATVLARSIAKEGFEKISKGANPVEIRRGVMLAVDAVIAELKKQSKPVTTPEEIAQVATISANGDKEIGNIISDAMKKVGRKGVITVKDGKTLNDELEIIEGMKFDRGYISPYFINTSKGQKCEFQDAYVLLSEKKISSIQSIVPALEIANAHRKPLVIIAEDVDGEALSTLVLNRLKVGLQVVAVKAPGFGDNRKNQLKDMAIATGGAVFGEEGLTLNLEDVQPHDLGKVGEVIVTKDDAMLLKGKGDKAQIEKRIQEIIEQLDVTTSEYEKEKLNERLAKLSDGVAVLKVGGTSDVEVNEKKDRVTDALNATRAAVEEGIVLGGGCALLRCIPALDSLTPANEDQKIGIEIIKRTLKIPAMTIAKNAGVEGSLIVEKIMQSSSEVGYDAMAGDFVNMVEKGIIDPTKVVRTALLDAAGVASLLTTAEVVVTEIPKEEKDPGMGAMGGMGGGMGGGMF

effect of a mutation on the interaction	Variant
increasing interaction	K422A
